Tests used:
Assay in all cases: scFv ELISA on coated domain, anti-HA-HRP, OD450
Ig-like = target: T1, Ig-like (human, UniProt Q01973)
T1 construct: Ig-like domain, His tag; also called Ig-like domain; human ROR1-immunoglobulin domain
Method: (§1) Thereafter, the plate was treated with each scFv and reacted for 2 hours, followed by washing four times using PBST and distilled water. After binding at room temperature for 1 hour using an HRP-conjugated anti-HA antibody (Roche, 12013819001, Anti-HA-Peroxidase, High Affinity) capable of binding to the HA tag, washing was performed six times using PBST and distilled water. After color development by adding TMB substrate solution (Thermo Scientific, 34029, 1-Step™ Ultra TMB-ELISA Substrate Solution), the color reaction was stopped with stop solution (Invitrogen, SS04, ELISA Stop Solution), and the absorbance was measured at OD 450 nm. The scFv binding to each domain was analyzed through ELISA.

FZD+KRD = target: T2, FZD+KRD (human, UniProt Q01973)
T2 construct: frizzled plus kringle domains, His tag; also called FK domain; human ROR1-frizzled-kringle domain
Method: as §1

FZD = target: T3, FZD (human, UniProt Q01973)
T3 construct: frizzled domain, His tag; also called Frizzled domain; human ROR1-frizzled domain
Method: as §1

T1 sequence (Q01973 39-151 limits assumed): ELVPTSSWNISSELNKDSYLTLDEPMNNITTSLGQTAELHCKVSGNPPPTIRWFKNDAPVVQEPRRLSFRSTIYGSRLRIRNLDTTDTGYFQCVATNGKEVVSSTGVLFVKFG
T2 sequence (Q01973 165-395 limits assumed): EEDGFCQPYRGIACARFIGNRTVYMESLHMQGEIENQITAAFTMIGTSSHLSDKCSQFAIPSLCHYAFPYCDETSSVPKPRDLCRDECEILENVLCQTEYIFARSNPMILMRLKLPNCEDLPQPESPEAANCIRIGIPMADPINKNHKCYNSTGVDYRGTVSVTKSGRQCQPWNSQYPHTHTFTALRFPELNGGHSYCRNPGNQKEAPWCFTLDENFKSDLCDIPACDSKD
T3 sequence (Q01973 165-305 limits assumed): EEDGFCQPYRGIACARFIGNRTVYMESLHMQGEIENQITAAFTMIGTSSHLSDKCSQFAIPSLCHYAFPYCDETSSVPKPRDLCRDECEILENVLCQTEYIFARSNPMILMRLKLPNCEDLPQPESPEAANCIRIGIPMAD

B1: P015012 scFv (scFv, V domains shown)
VH: EVQLLESGGGLVQPGGSLRLSCAASGFTFSGYSMSWVRQAPGKGLEWVSGISYGGSSISYADSVKGRFTISRDNSKNTLYLQMNSLRAEDTAVYYCAKPVRRWARFRLSYDDAMDVWGQGTLVTVSS
VL: QSVLTQPPSASGTPGQRVTISCSGSSSNIGNNAVNWYQQLPGTAPKLLIYANSHRPSGVPDRFSGSKSGTSASLAISGLRSEDEADYYCGTWDSSLSGYVFGGGTKLTVL
notes: HA-tagged scFv
Ig-like
  binding result: no binding

B2: P015021 scFv (scFv, V domains shown)
VH: EVQLLESGGGLVQPGGSLRLSCAASGFTFSSYAMSWVRQAPGKGLEWVSWISPGGGNIYYADSVKGRFTISRDNSKNTLYLQMNSLRAEDTAVYYCARSQSGFDYWGQGTLVTVSS
VL: QSVLTQPPSASGTPGQRVTISCSGSSSNIGNNSVTWYQQLPGTAPKLLIYYDSHRPSGVPDRFSGSKSGTSASLAISGLRSEDEADYYCGAWDSSLNGYVFGGGTKLTVL
notes: HA-tagged scFv
Ig-like
  binding result: no binding

B3: P015014 scFv (scFv, V domains shown)
VH: EVQLLESGGGLVQPGGSLRLSCAVSGFTFSSYSMSWVRQAPGKGLEWVSAISPGDSNKYYADSVKGRFTISRDNSKNTLYLQINSLRAEDTAVYYCARTFPYFDYWGQGTLVTVSS
VL: QSVLTQPPSASGTPGERVTISCSSSSSNIGSNYVNWYQQLPGTAPKLLIYDNSQRPSGVPDRFSGSKSGTSASLAISGLRSEDEADYYCGSWDDSLSGYVFGGGTKLTVL
notes: HA-tagged scFv
FZD+KRD
  binding result: no binding

B4: P015006 scFv (scFv, V domains shown)
VH: EVQLLESGGGLVQPGGSLRLSCAASGFTFSNYSMSWVRQAPGKGLEWVSAISHGSGSIYYADSVKGRFTISRDNSKNTLYLQMNSLRAEDTAVYYCAKPISAWSHIRMSYAYGMDVWGQGTLVTVSS
VL: QSVLTQPPSASGTPGQRVTISCTGSSSNIGSNYVSWYRQLPGTAPKLLIYSDSNRPSGVPDRFSGSKSGTSASLAISGLRSEDEADYYCATWDASLSAYVFGGGTKLTVL
notes: HA-tagged scFv
Ig-like
  binding result: no binding
FZD
  binding result: binds

B5: P015042 scFv (scFv, V domains shown)
VH: EVQLLESGGGLVQPGGSLRLSCAASGFTFSDYAMSWVRQAPGKGLEWVSVISSDGGSIYYADSVKGRFTISRDNSKNTLYLQMNSLRAEDTAVYYCAKDRSRDMEVDFDYWGQGTLVTVSS
VL: QSVLTQPPSASGTPGQRVTISCSGSSSNIGSNYVTWYQQLPGTAPKLLIYDSSQRPSGVPDRFSGSKSGTSASLAISGLRSEDEADYYCGTWDYSLSGYVFGGGTKLTVL
notes: HA-tagged scFv
FZD
  binding result: no binding
FZD+KRD
  binding result: no binding

B6: P015039 scFv (scFv, V domains shown)
VH: EVQLLESGGGLVQPGGSLRLSCAASGFTFSDYAMSWVRQAPGKGLEWVSWISPGGGNTYYADSVKGRFTISRDNSKNTLYLQMNSLRAEDTAVYYCAKGALMCLSATCSSDYGMDVWGQGTLVTVSS
VL: QSVLTQPPSASGTPGQRVTISCTGSSSNIGNNAVSWYQQLPGTAPKLLIYSDNQRPSGVPDRFSGSKSGTSASLAISGLRSEDEADYYCGTWDYSLNGYVFGGGTKLTVL
notes: HA-tagged scFv
Ig-like
  binding result: binds
FZD+KRD
  binding result: no binding

B7: P015011 scFv (scFv, V domains shown)
VH: EVQLLESGGGLVQPGGSLRLSCAASGFTFSNYAMSWVRQAPGKGLEWVSGISPDGGSIYYADSVKGRFTISRDNSKNTLYLQMNSLRAEDTAVYYCAKAARLSPSMNYSYAYGMDVWGQGTLVTVSS
VL: QSVLTQPPSASGTPGQRVTISCTGSSSNIGNNYVSWYQQLPGTAPKLLIYSDSHRPSGVPDRFSGSKSGTSASLAISGLRSEDEADYYCGTWDYSLNGYVFGGGTKLTVL
notes: HA-tagged scFv
FZD
  binding result: no binding

B8: P015013 scFv (scFv, V domains shown)
VH: EVQLLESGGGLVQPGGSLRLSCAASGFTFSSYDMSWVRQVPGKGLEWVSWISHGGGSIYYADSVKGRFTISRDNSKNTLYLQMNSLRAEDTAVYYCARDLSNRLFTGFDYWGQGTLVAVSS
VL: QSVLTQPPSASGTPGQRVTISCSGSSSNIGSNSVYWYQQLPGTAPKPLIYSDSHRPSGVPDRFSGSKSGTSASLAISGLRSEDEADYYCGTWDYSLNAYVFGGGTKLTVL
notes: HA-tagged scFv
Ig-like
  binding result: no binding
FZD
  binding result: binds

B9: P015001 scFv (scFv, V domains shown)
VH: EVQLLESGGGLAQPGGSLRLSCAASGFTFSNYDMSWVRQAPGKGPEWVSGIYSGNSNTYYADSVKGRFTISRDNSKNTLYLQMNSLRAEDTAVYYCARDLQYTEWAGFDYWGQGTLVTVSS
VL: QSVLTQPPSASGTPGQRVTISCSGSSSNIGSNDVTWYQQLPGTAPKLLIYDDSKRPSGVPDRFSGSKSGTSASLAISGLRSEDEADYYCAAWDDSLSGYVFGGGTKLTVL
notes: scFv of a phage-library clone from a bacterial extract, with HA tag
FZD
  binding result: no binding

B10: P015009 scFv (scFv, V domains shown)
VH: EVQLLESGGGLVQPGGSLRLSCAASGFTFSNYSMSWVRQAPGKGLEWVSGIYSGNSNTYYADSVKGRFTISRDNSKNTLYLQMNSLRAEDTAVYYCAKDSRATHHRWHYYDNAMDVWGQGTLVTVSS
VL: QSVLTQPPSASGTPGQRVTISCTGSSSNIGSNYVSWYRQLPGTAPKLLIYSDSNRPSGVPDRFSGSKSGTSASLAISGLRSEDEADYYCGTWDSSLSGYVFGGGTKLTVL
notes: HA-tagged scFv
Ig-like
  binding result: no binding
FZD
  binding result: binds

B11: P015043 scFv (scFv, V domains shown)
VH: EVQLLESGGGLVQPGGSLRLSCAASGFTFSNYDMSWVRQAPGKGLEWVSWISPGGSSIYYADSVKGRFTISRDNSKNTLYLQMNSLRAEDTAVYYCAKTLTRFDYWGQGTLVTVSS
VL: QSVLTQPPSASGTPGQRVTISCTGSSSNIGNNNVSWYQQLPGTAPKLLIYYDSHRPSGVPDRFSGSKSGTSASLAISGLRSEDEADYYCGTWDSSLSGYVFGGGTKLTVL
notes: HA-tagged scFv
Ig-like
  binding result: no binding

B12: P015010 scFv (scFv, V domains shown)
VH: EVQLLESGGGLVQPGGSLRLSCAASGFTFSNYAMSWVRQAPGKGLEWVSGISPNGSSIYYADSVKGRFTISRDNSKNTLYLQMNSLRAEDTAVYYCAKAARLSPSRNYSYAYGMDVWGQGTLVTVSS
VL: QSVLTQPPSASGTPGQRVTISCTGSSSNIGNNNVTWYQQLPGTAPKLLIYSDSQRPSGVPDRFSGSKSGTSASLAISGLRSEDEADYYCGTWDYSLNGYVFGGGTKLTVL
notes: HA-tagged scFv
Ig-like
  binding result: binds

B13: P015003 scFv (scFv, V domains shown)
VH: EVQLLESGGGLVQPGGSLRLSCAASGFTFSSYAMSWVRQAPGKGLEWVSGISPGGSSKYYADSVKGRFTISRDNSKNTLYLQMNSLRAEDTAVYYCARGPHRAIDTAFDYWGQGTLVTVSS
VL: QSVLTQPPSASGTPGQRVTISCTGSSSNIGSNYVSWYRQLPGTAPKLLIYSDSNRPSGVPDRFSGSKSGTSASLAISGLRSEDEADYYCATWDASLSAYVFGGGTKLTVL
notes: HA-tagged scFv
Ig-like
  binding result: no binding

B14: P015002 scFv (scFv, V domains shown)
VH: EVQLLESGGGLVQPGGSLRLSCAASGFTFSDYSMSWVRQAPGKGLEWVSGISHNGGSTYYADSVKGRFTISRDNSKNTLYLQMSSLRAEDTAVYYCARDVSRWSKTRWSYDNAMDVWGQGTLVTVSS
VL: QSVLTQPPSASGTPGQRVTISCTGSSSNIGSNYVSWYRQLPGTAPKLLIYSDSNRPSGVPDRFSGSKSGTSASLAISGLRSEDEADYYCATWDASLSAYVFGGGTKLTVL
notes: HA-tagged scFv
Ig-like
  binding result: no binding

B15: P015038 scFv (scFv, V domains shown)
VH: EVQLQESGGGLVLPGGSLRLSCAASGFTFNNYAMSWVRQAPGKGLEWVSGISPNGSSIYYADSVKGRFTISRDNSKNTLYLQMNSLRAEDTAVYYCAKAARLSPSRNYSYAYGMDVWGQGTLVTVSS
VL: QSVLTQPPSASGTPGQRVTISCTGSSSNIGNNNVTWYQQLPGTAPKLLIYSDSQRPSGVPDRFSGSKSGTSASLAISGLRSEDEADYYCGTWDYSLNGYVFGGGTKLTVL
notes: HA-tagged scFv
Ig-like
  binding result: binds

B16: P015040 scFv (scFv, V domains shown)
VH: EVQLLESGGGLVQPGGSLRLSCAASGFTFSNYAMSWVRQAPGKGLEWVSGISPNGSSIYYADSVKGRFTISRDNSKNTLYLQMNSLRAEDTAVYYCAKAARLSPSRNYSYAYGMDVWGQGTLVTVSS
VL: QSVLTQPPSASGTPGQRVTISCTGSSSNIGNNNVTWYQQLPGTAPKLLIYSDSQRPSGVPDRFSGSKSGTSASLAISGLRSKDEADYYCGTWDYSLNGYVFGGGTKLTVL
notes: HA-tagged scFv
Ig-like
  binding result: binds

B17: P015041 scFv (scFv, V domains shown)
VH: EVQLLESGGGLVQPGGSLRLSCAASGFTFSNYAMSWVRQAPGKGLEWVSGISPNGSSIYYADSVKGRFTISRDNSKNTLYLQMNSLRAEDTAVYYCAKAARLSPSRNYSYAYGMDVWGQGTLVTVSS
VL: QSVLTQPPSASGTPGQRVTISCTGSSSNIGNNNVTWYQQLPGTAPKLLIYSDSQRPSGVPDRFSGSKSGTSASLAISGLRSEDEADYYCGTWEYSLNGYVFGGGTKLTVL
notes: HA-tagged scFv
Ig-like
  binding result: binds

B18: P015005 scFv (scFv, V domains shown)
VH: EVQLLESGGGLVQPGGSLRLSCAASGFTFSDYSMSWVRQAPGKGLEWVSGISHNGGSTYYADSVKGRFTISRDNSKNTLYLQMSSLRAEDTAVYYCARDVSRWSKTRWSYDNAMDVWGQGTLVTVSS
VL: QSVLTQPPSASGTPGQRVTISCSGSSSNIGSNYVNWYQQLPGTAPKLLIYSDSHRPSGVPDRFSGSKSGTSASLAISGLRSEDEADYYCGSWDSSLNAYVLGGGTKLTVL
notes: HA-tagged scFv
Ig-like
  binding result: no binding

B19: P015044 scFv (scFv, V domains shown)
VH: EVQLLESGGGLVQPGGSLRLSCAASGFTFSNYAMHWVRQAPGKGLEWVSIIYPDDDTRYNPSFRGRFTISRDNSKNTLYLQMNSLRAEDTAVYYCARDLLYAGDYWGQGTLVTVSS
VL: QSVLTQPPSASGTPGQRVTISCGGNNIESKAVHWYQQLPGTAPKLLIYANNKRPSGVPDRFSGSKSGTSASLAISGLRSEDEADYYCQSYDSNKVVFGGGTKLTVL
notes: HA-tagged scFv
FZD
  binding result: no binding
FZD+KRD
  binding result: no binding

Reference: US20260028400A1 (AIMED BIO, published 2026)
